Reference: patent US20100292442A1 (Amgen, published 2010)
Where two headings read alike, the source gives them in different places. Blank lines part the entries; values can stand above or below the binder they belong to.

Assays:
[1] = biological target: T1, cynomolgus IL-17RA on cells (cynomolgus); assay: FACS competition, non-clonal hybridoma supernatant; MFI of biotin-huIL-17A (competitor, 500 ng/ml) on cyno IL-17RA+ CHO cells
T1 construct: whole, on cells; also called CHO-cynoIL-17RA; cyno IL-17RA+ CHO cells

[2] = biological target: T2, huIL-17RA-FLAG-polyHis (human, UniProt Q96F46 33-320); assay: Luminex binning; bead huIgG control (f15) + IL-17RA [D00007 Fig. 8B]
T2 construct: also called wild-type IL-17RA-FLAG-polyHis; HuIL-17RA-Flag-pHis
Description: Cross-competition studies were performed to determine IL-17RA binding characteristics of exemplary IL-17RA neutralizing antibodies. […] The method employed the Bio-Plex Workstation and software (BioRad, Hercules, Calif.), as well as reagents from Luminex® Corp. (Austin, Tex.). The manufacturers' basic protocols were followed except where noted below (see www.bio-rad.com and www.luminexcorp.com for details). […] The mouse-anti-human IgG coating was evaluated and the beads quantified by FACS. Each bead code was separately incubated with 10 ul of anti-IL-17RA antibody for 1 hour at room temperature and then washed. The beads were pooled and then dispensed to a 96-well filter plate (Millipore, Billerica, Mass., product #MSBVN1250). […] The PE-tagged monovalent antibody will detect the presence of the second mAb added to the well, but not the first mAb captured by the monovalent mouse-anti-human IgG antibody. Beads were resuspended in 120 ul PBSAT and at least 100 events/bead code were collected on the Bio-Plex workstation as per the manufacturer's recommended protocol.

[3] = biological target: T1, cynomolgus IL-17RA on cells; assay: FACS competition, non-clonal hybridoma supernatant; MFI of biotin-huIL-17A (competitor, 500 ng/ml) on cyno IL-17RA+ CHO cells; remark: listed apart in the source
Description: (§1) Non-clonal hybridoma supernatants were prepared in volumes of 1-2 mls (the Ig concentrations were not determined for these supernatants). […] Anti-IL-17RA non-clonal hybridomas were selected for sub-cloning based on their performance in the CHO-IL-17RA FACS assay and HFF bioassay.

[4] = biological target: T3, Human IL-17RA full-length expressed on the surface of cells (human, UniProt Q96F46 33-866); assay: FACS competition, non-clonal hybridoma supernatant; % cells positive for biotin-huIL-17A (competitor, 500 ng/ml) on huIL-17RA+ CHO cells
T3 construct: used here for over-expressing CHO cells (FACS) and for the native receptor on human fibroblasts (bioassays); also called IL-17RA CHO cells; CHO-huIL-17RA
Description: as §1

[5] = biological target: T3, Human IL-17RA full-length expressed on …; assay: FACS competition, non-clonal hybridoma supernatant; % cells positive for biotin-huIL-17A (competitor, 500 ng/ml) on huIL-17RA+ CHO cells (second % positive column)
Description: as §1

[6] = biological target: T1, cynomolgus IL-17RA on cells; assay: FACS competition, non-clonal hybridoma supernatant; MFI of biotin-huIL-17A (competitor, 500 ng/ml) on cyno IL-17RA+ CHO cells; remark: listed apart in the source
[7] = biological target: T1, cynomolgus IL-17RA on cells; assay: cell-based or functional assay

MFI [6]: 6 MFI
B4: AMH15/AML15 (antibody, IgG2, V domains shown)
VH: QVQLVESGGGVVQPGRSLRLSCAASGFTFSSYGMQWVRQAPGKGLEWVAVIWYDGNKKYYADSVKGRFTISRDNSKNTLYLQMNSLRAEDTAVYYCARGRVRDYYYGMDVWGQGTTVTVSS
VL: EIVMTQSPATLSVSPGERVTLSCRASQSVSSNLAWFQQKPGQAPRPLIYDASTRAAGIPARFSGSGSGTDFTLTISSLQSEDFAVYYCQQYDNWPLTFGGGTKVEIK
notes: Fully human mAb from IgG2 XenoMouse hybridomas; also called AM-15

IC50, cynomolgous IL-17A-induced IL-6 production from JTC-12 cells [7]: ~1.2 nM
MFI [6]: 10 MFI
B5: AMH14/AML14 (antibody, V domains shown)
VH: QVQLVQSGAEVKKPGASVKVSCKASGYTFTRYGISWVRQAPGQGLEWMGWISTYSGNTNYAQKLQGRVTMTTDTSTSTAYMELRSLRSDDTAVYYCARRQLYFDYWGQGTLVTVSS
VL: EIVMTQSPATLSVSPGERATLSCRASQSVSSNLAWFQQKPGQAPRPLIYDASTRATGVPARFSGSGSGTDFTLTISSLQSEDFAVYYCQQYDNWPLTFGGGTKVEIK
notes: Fully human mAb from IgG2 XenoMouse hybridomas; also called AM-14

normalized MFI [2]: 95
MFI [3]: 6 MFI
% positive [4]: 1.84%
% positive [5]: 0.76%
B6: AMH16/AML16 (antibody, V domains shown)
VH: QVQLVQSGAEVKKPGASVKVSCKASGYTFTSYGISWVRQAPGQGLEWMGWISAYNGNTKYAQKLQGRVTMTTDTSTSTVYMELRSLRSDDTAVYYCARKQLVFDYWGQGTLVTVSS
VL: EIVMTQSPATLSVSPGERATLSCRASQSISTSLAWYQQKPGQAPRLLIYGTSTRATGIPARFSGSGSGTEFTLTISSLQSEDFAVYFCQQYDIWPLTFGGGTKVEIK
notes: Fully human mAb from IgG2 XenoMouse hybridomas; also called AM-16

normalized MFI [2]: 50
B8: AMH20/AML20 (antibody, V domains shown)
VH: EVQLVESGGGLVQPGGSLRLSCAASGFTFSSYSMNWVRQAPGKGLEWVSFISARSSTIYYADSVKGRFTISRDNAKNSLYLQMNSLRDEDTAVYYCARPKVGGGMDVWGQGTTVTVSS
VL: DIQMTQSPSSLSASVGDRVTITCRASQGISNYLAWYQQKPGKFPELLIYAASTLQSGVPSRFSGSGSGTDFTLTISSLQPEDVATYYCQKYNRAPFTFGPGTKVDIK
notes: Fully human mAb from IgG2 XenoMouse hybridomas; also called AM-20

normalized MFI [2]: -5
B16: AMH18/AML18 (antibody, V domains shown)
VH: QVQLVQSGAEVKKPGASVKVSCKASGYSFTDYYMHWVRQAPGQGLEWMGWMHPNSGGTDLAQRFQGRVTMTRDTSISTAYMELSRLRSDDTAVYYCARGGYCSTLSCSFYWYFDLWGRGTLVTVSS
VL: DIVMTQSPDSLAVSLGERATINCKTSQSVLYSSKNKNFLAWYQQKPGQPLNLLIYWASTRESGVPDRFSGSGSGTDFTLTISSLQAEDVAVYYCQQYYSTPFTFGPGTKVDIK
notes: Fully human mAb from IgG2 XenoMouse hybridomas

Second part, the binder before the results:

B1: AMH22/AML22 (antibody, V domains shown)
VH: QVQLVQSGAEVKKPGASVKVSCKASGYTFTRYGISWVRQAPGQGLEWMGWISAYSGNTNYAQKLQGRVTMTTDTSTSTAYMELRSLRSDDTAVYYCARRQLYFDYWGQGTLVTVSS
VL: EIVMTQSPATLSVSPGERVTLSCRASQSVSSNLAWFQQKPGQAPRPLIYDASTRAAGIPARFSGSGSGTDFTLTISSLQSEDFAVYYCQQYDNWPLTFGGGTKVEIK
notes: Fully human mAb from IgG2 XenoMouse hybridomas; also called AM-22
MFI [1]: 18 MFI

B2: AMH12/AML12 (antibody, V domains shown)
VH: QVQLVQSGAEVKKPGASVKVSCKASGYTLTSYGISWVRQAPGQGLEWMGWISTYKGNTNYAQKLQGRVTMTTDTSTSTAYMELRSLRSDDTAVYYCARKQLVFDYWGQGTLVTVSS
VL: EIVMTQSPATLSVSPGERATLSCRASQSISSSLAWYQQKPGQAPRLLIYGASTRATGIPARFSGSGSGTEFTLTISSLQSENFAVYYCQQYDNWPLTFGGGTKVEIK
notes: Fully human mAb from IgG2 XenoMouse hybridomas; also called AM-12
normalized MFI [2]: 32
MFI [3]: 6 MFI
% positive [4]: 1%
% positive [5]: 1.36%

B3: AMH17/AML17 (antibody, V domains shown)
VH: QVQLVQSGAEVKKPGAAVKVSCKATGYTLTSYGISWVRQAPGQGLEWMGWISAYSGNTKYAQKLQGRVTMTTDTSTSTAYMELRSLRSDDTAVYYCARKQLVFDYWGQGTLVTVSS
VL: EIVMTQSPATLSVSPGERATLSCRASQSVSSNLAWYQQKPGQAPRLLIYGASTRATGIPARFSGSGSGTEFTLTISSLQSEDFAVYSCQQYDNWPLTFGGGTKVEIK
notes: Fully human mAb from IgG2 XenoMouse hybridomas; also called AM-17
normalized MFI [2]: 56
MFI [3]: 8 MFI
% positive [4]: 1.75%
% positive [5]: 1.23%

B7: AMH21/AML21 (antibody, V domains shown)
VH: EVQLVESGGGSVQPGGSLRLSCAASGFTFSSYSMNWVRQAPGKGLEWVSIISSRSSIIHYADSVKGRFTISRDNAKNSLYLQMNSLRDEDTAVYYCARPKVGGGMDVWGQGTTVTVSS
VL: DIQMTQSPSSLSASVGDRVTITCRASQGISNYLAWYQQKPGKFPELLIYAASTLQSGVPSRFSGSGSGTDFTLTISSLQPEDVATYYCQKYNRAPFTFGPGTKVDIK
notes: Fully human mAb from IgG2 XenoMouse hybridomas; also called AM-21
normalized MFI [2]: 28
MFI [6]: 6 MFI

B9: AMH4/AML4 (antibody, V domains shown)
VH: QVQLVESGGGVVQPGRSLRLSCAASGINFSSYGMHWVRQAPGKGLEWVAVIWYDGSNKHYADSVKGRFTISRDNSKNTLYLQMNSLRAEDTAVYYCARDTGVYWGQGTLVTVSS
VL: not shown
notes: as for B16
normalized MFI [2]: 37

B10: AMH11/AML11 (antibody, V domains shown)
VH: QVQLVESGGGVVQPGRSLRLSCATSGITFSSYGMHWVRQAPGKGLEWVAVIWYDGSNKYYADSVKGRFTISRDNSKNTLYLQMNSLRAEDTAVYYCARDTKDYWGQGTLVTVSS
VL: EIVMTQSPATLSVSPGERATLSCRASQSVSSNLAWYQQKPGQAPRLLIYGASTRAAGIPARFSGGGSGTAFTLTISNLQSEDFAVYYCQHYINWPKWTFGQGTKVDIK
notes: as for B16
normalized MFI [2]: 84
MFI [1]: 9 MFI

B11: AMH7/AML7 (antibody, V domains shown)
VH: QVQLVQSGAEVKKPGASVKVSCKASGYTLTRYGISWVRQAPGQGLEWMGWISAYNGNTNYAQKLQGRVTMTTDTSTSTAYMELRSLRSDDTAVYYCARRDYDILTGYYNGFDPWGQGTLVTVSS
VL: DIQMTQSPSSLSASVGDRVTITCRASQGIRNDLGWYQQKPGKAPKRLIYAASSLQSGVPSRFSGSGSGTEFTLTISSLQPEDFATYYCLQHKSYPLTFGGGTKVEIK
notes: as for B16
normalized MFI [2]: 123

B12: AMH6/AML6 (antibody, V domains shown)
VH: QVQLVQSGAEVKKPGASVKVSCKASGYTLTRYGISWVRQAPGQGLEWMGWISAYNGNTNYAQKLQGRVTMTTDTSTSTAYMELRSLRSDDTAVYYCARRDYDILTGYYNGFDPWGQGTLVTVSS
VL: DIQMTQSPSSLSASVGDRVTITCRASQGIRNDLGWYQQKPGKAPKRLIYAASSLQSGVPSRFSGSGSGTEFTLTISSLQPEDFATYYCLQHKSYPLTFGGGTKVEIK
notes: as for B16
normalized MFI [2]: 26

B13: AMH5/AML5 (antibody, IgG2, V domains shown)
VH: QVQLQESGPGLVKPSETLPLTCTVSGGSIRSYYWSWIRQPAGKGLEWIGRIYRSGNTIYNPSLKSRVTMSIDTSKNQFSLTLSSVTAADTAVYYCARENYSESSGLYYYYGMDVWGQGTTVTVSS
VL: DIQMTQSPSSLSASVGDRVTITCRASQGIRNDLGWYQQKPGKAPKRLIYAASSFQSGVPSRFSGSGSGTGFTLTISSLQPEDFATYYCLQHNSYPPTFGQGTKVEIK
notes: Fully human mAb from IgG2 XenoMouse hybridomas; also called AM-5
MFI [1]: 9 MFI

B14: AMH1/AML1 (antibody, V domains shown)
VH: QVQLQESGPGLVKPSETLSLTCTVSGGSISNYYWNWIRQSPGKGLEWIGDIYYSGSTNYNPSLKSRVTISVDTSKNQFSLKLSSVTTADTAVYYCARDGELANYYGSGSYQFYYYYGMDVWGQGTTVTVSS
VL: DILMTQSPSSLSASVGDRVTITCRASQGIRNDLGWYQQKPGKAPKRLIYAASSLQSGVPSRFSGSGSGTEFTLTISSLQPEDFATYYCLQHNSNPFTFGPGTKVDIK
notes: as for B16
MFI [1]: 11 MFI

B15: AMH8/AML8 (antibody, V domains shown)
VH: QVQLVQSGAEVKKPGASVKVSCKASGNTFTGYGISWVRQAPGQGLEWMGWISAYNGNTNYAQNLQGRVTMTTDTSTSTAYMELRSLRSDDTAVYYCARRDYDILTGYYNGFDPWGQGTLVTVSS
VL: DIQMTQSPSSLSASVGDRVTITCRASQGIRNDLGWYQQKPGKAPKRLIYAASSLQSGVPSRFSGSGSGTEFTLTISSLQPEDFATYYCLQHKSYPLTFGGGTKVEIK
notes: as for B16
normalized MFI [2]: 54

B17: AMH10/AML10 (antibody, V domains shown)
VH: QVQLQESGPGLVKPSQTLSLTCTVSGGSISSGGYYWSWIRQHPGKGLEWIGYIYFSGSAYYNPSLKSRVAISVDTSKNQFSLKLSSVTAADTAVYYCAREYYDSSGYPDAFDIWGQGTMVTVSS
VL: DIQMTQSPSSVSASVGDRVTITCRASQGIRSWLAWYQQKPGKAPKLLIFAASSLQSGVPSRFSGSGSGTEFTLTISSLQPEDFATYYCQQANNFPRTFGQGTKVEIK
notes: Fully human mAb from IgG2 XenoMouse hybridomas; also called AM-10
normalized MFI [2]: 140

B18: AMH13/AML13 (antibody, V domains shown)
VH: QVQLVESGGGVVQPGRSLRLSCAASGFTFSSYGMQWVRQAPGKGLEWVAVIWYDGNKKYYADSVKGRFTISRDNSKNTLYLQMNSLRAEDTAVYYCARGRVRDYYYGMDVWGQGTTVTVSS
VL: DIVMTQTPLSLSVTPGQPASIACKSSQSLLHSDGKTYLYWYLQKPGQPPQLLIYEVSTRFSGVPDRFSGSGSGTDFTLKISRVEAEDVGVFYCMQSIQLPLTFGGGTKVEIK
notes: as for B16
MFI [3]: 6 MFI
% positive [4]: 1.52%
% positive [5]: 0.89%
